Measurements from patent US20060211075A1, “Enzyme sensors including environmentally sensitive or fluorescent labels and uses thereof” (The Albert Einstein College of Medicine of Yeshiva …, priority 2005, published 2006).
pKd: −log10 of the molar value.

Columns and labels:
GST-Lck-SH2 [1] = molecular target: GST-Lck-SH2 (UniProt P06239); test: fluorescence change on Src-catalysed phosphorylation in presence of GST-Lck-SH2 (1.25 µM peptide, 5 µM Lck-SH2, 12 nM Src, 1 mM ATP)
GST-Lck-SH2 [2] = molecular target: GST-Lck-SH2 (UniProt P06239); test: fluorescence change on Src-catalysed phosphorylation in presence of GST-Lck-SH2; value in parentheses, amide-capped peptide 14
GST-Lck-SH2 [3] = molecular target: GST-Lck-SH2 (UniProt P06239); test: fluorescence change on Src-catalysed phosphorylation in presence of GST-Lck-SH2 (1.25 µM peptide, 5 µM Lck-SH2, 12 nM Src, 1 mM ATP); library peptide with -NH(CH2)2SH
[4] = molecular target: phosphorylated peptide 14, Ac-Glu-Glu-Glu-Ile-pTyr-Gly-Glu-Ile-Dab(dapoxyl)-Ala-amide; test: Src phosphorylation of 8 µM peptide 14 at 12 µM Lck-SH2, fluorescence
[5] = molecular target: phosphorylated peptide 14, Ac-Glu-Glu-Glu-Ile-pTyr-Gly-Glu-Ile-Dab(dapoxyl)-Ala-amide; test: Src phosphorylation of 8 µM peptide 14 at 8 µM Lck-SH2, fluorescence
[6] = molecular target: phosphotyrosine version of peptide 13, Ac-Glu-Glu-Glu-Ile-pTyr-Dap(NBD)-Glu-Ile-Glu-Ala-amide; test: Src phosphorylation of 16 µM peptide 13 at 32 µM Lck-SH2, fluorescence
[7] = molecular target: phosphotyrosine version of peptide 13, Ac-Glu-Glu-Glu-Ile-pTyr-Dap(NBD)-Glu-Ile-Glu-Ala-amide; test: Src phosphorylation of 16 µM peptide 13 at 4 µM Lck-SH2, fluorescence
[8] = molecular target: phosphorylated peptide 14, Ac-Glu-Glu-Glu-Ile-pTyr-Gly-Glu-Ile-Dab(dapoxyl)-Ala-amide; test: Src phosphorylation of 8 µM peptide 14 at 32 µM Lck-SH2, fluorescence
[9] = molecular target: phosphorylated peptide 14, Ac-Glu-Glu-Glu-Ile-pTyr-Gly-Glu-Ile-Dab(dapoxyl)-Ala-amide; test: Src phosphorylation of 8 µM peptide 14 at 2 µM Lck-SH2, fluorescence
[10] = molecular target: phosphotyrosine version of peptide 13, Ac-Glu-Glu-Glu-Ile-pTyr-Dap(NBD)-Glu-Ile-Glu-Ala-amide; test: Src phosphorylation of 16 µM peptide 13 at 20 µM Lck-SH2, fluorescence
[11] = molecular target: phosphotyrosine version of peptide 13, Ac-Glu-Glu-Glu-Ile-pTyr-Dap(NBD)-Glu-Ile-Glu-Ala-amide; test: Src phosphorylation of 16 µM peptide 13 at 0 µM Lck-SH2 (baseline point of the titration)
[12] = molecular target: phosphotyrosine version of peptide 13, Ac-Glu-Glu-Glu-Ile-pTyr-Dap(NBD)-Glu-Ile-Glu-Ala-amide; test: Src phosphorylation of 16 µM peptide 13 at 8 µM Lck-SH2, fluorescence
[13] = molecular target: phosphotyrosine version of peptide 13, Ac-Glu-Glu-Glu-Ile-pTyr-Dap(NBD)-Glu-Ile-Glu-Ala-amide; test: Src phosphorylation of 16 µM peptide 13 at 12 µM Lck-SH2, fluorescence
[14] = molecular target: phosphorylated peptide 14, Ac-Glu-Glu-Glu-Ile-pTyr-Gly-Glu-Ile-Dab(dapoxyl)-Ala-amide; test: Src phosphorylation of 8 µM peptide 14 at 0.2 µM Lck-SH2, fluorescence
[15] = molecular target: phosphotyrosine version of peptide 13, Ac-Glu-Glu-Glu-Ile-pTyr-Dap(NBD)-Glu-Ile-Glu-Ala-amide; test: Src phosphorylation of 16 µM peptide 13 at 16 µM Lck-SH2, fluorescence
[16] = molecular target: phosphotyrosine version of peptide 13, Ac-Glu-Glu-Glu-Ile-pTyr-Dap(NBD)-Glu-Ile-Glu-Ala-amide; test: Src phosphorylation of 16 µM peptide 13 at 26 µM Lck-SH2, fluorescence
[17] = molecular target: phosphotyrosine version of peptide 13, Ac-Glu-Glu-Glu-Ile-pTyr-Dap(NBD)-Glu-Ile-Glu-Ala-amide; test: fluorescence titration: Src-phosphorylated peptide 13 fixed at 16 µM, GST-Lck-SH2 varied, nonlinear regression
[18] = molecular target: phosphorylated peptide 14, Ac-Glu-Glu-Glu-Ile-pTyr-Gly-Glu-Ile-Dab(dapoxyl)-Ala-amide; test: Src phosphorylation of 8 µM peptide 14 at 4 µM Lck-SH2, fluorescence
[19] = molecular target: phosphorylated peptide 14, Ac-Glu-Glu-Glu-Ile-pTyr-Gly-Glu-Ile-Dab(dapoxyl)-Ala-amide; test: Src phosphorylation of 8 µM peptide 14 at 16 µM Lck-SH2, fluorescence
[20] = molecular target: phosphorylated peptide 14, Ac-Glu-Glu-Glu-Ile-pTyr-Gly-Glu-Ile-Dab(dapoxyl)-Ala-amide; test: Src phosphorylation of 8 µM peptide 14 at 20 µM Lck-SH2, fluorescence
[21] = molecular target: phosphorylated peptide 14, Ac-Glu-Glu-Glu-Ile-pTyr-Gly-Glu-Ile-Dab(dapoxyl)-Ala-amide; test: Src phosphorylation of 8 µM peptide 14 at 26 µM Lck-SH2, fluorescence
GST-Lck-SH2 [22] = molecular target: GST-Lck-SH2 (UniProt P06239); test: fluorescence change on Src-catalysed phosphorylation in presence of GST-Lck-SH2; value in parentheses, amide-capped peptide 13
[23] = system: T1, CC[C@H](C)[C@H](NC(=O)[C@H](CCC(=O)O)NC(=O)[C@H](CNc1ccc([N+](=O)[O-])c2nonc12)NC(=O)[C@H](Cc1ccc(O)cc1)NC(=O)[C@@H](NC(=O)[C@H](CCC(=O)O)NC(=O)[C@H](CCC(=O)O)NC(=O)[C@H](CCC(=O)O)NC(C)=O)[C@@H](C)CC)C(=O)N[C@@H](CCC(=O)O)C(=O)N[C@@H](C)C(N)=O; test: purified protein, by the assay type; assay type: biochemical; details: other: Src kinase; Lck-SH2 20 μM; varying peptide; pH 7.5; 30.0 °C
T1 construct: purchased Invitrogen
Description: The fluorescence change was monitored as a function of time. Control assays in the absence of Lck-SH2 were also performed.
The final Src concentration was 30 nM for peptide 13 and 15 nM for peptide 14.

Chain of GST-Lck-SH2 (P06239 127-224): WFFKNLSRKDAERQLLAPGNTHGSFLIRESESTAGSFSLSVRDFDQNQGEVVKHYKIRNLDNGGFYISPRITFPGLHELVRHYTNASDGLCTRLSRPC

Src-phosphorylated library peptide with Dab-7 (Cascade Yellow on Dab) at P+4 of Ac-Glu-Glu-Glu-Ile-Tyr-Gly-Glu-Ile-Glu-Ala
Fold change in fluorescence intensity (GST-Lck-SH2 [1]): 1.6 fold

Src-phosphorylated library peptide with Dab-6 (NBD on Dab) at P+1 of Ac-Glu-Glu-Glu-Ile-Tyr-Gly-Glu-Ile-Glu-Ala
Fold change in fluorescence intensity (GST-Lck-SH2 [1]): 1.3 fold

Src-phosphorylated library peptide with Dab-5 (dapoxyl on Dab) at P+1 of Ac-Glu-Glu-Glu-Ile-Tyr-Gly-Glu-Ile-Glu-Ala
Fold change in fluorescence intensity (GST-Lck-SH2 [1]): 2.4 fold

Src-phosphorylated library peptide with Dap-5 (dapoxyl on Dap) at P+3 of Ac-Glu-Glu-Glu-Ile-Tyr-Gly-Glu-Ile-Glu-Ala
Fold change in fluorescence intensity (GST-Lck-SH2 [1]): 3.3 fold

Src-phosphorylated library peptide with Dab-5 (dapoxyl on Dab) at P+2 of Ac-Glu-Glu-Glu-Ile-Tyr-Gly-Glu-Ile-Glu-Ala
Fold change in fluorescence intensity (GST-Lck-SH2 [1]): 1.6 fold

Src-phosphorylated library peptide with Dap-5 (dapoxyl on Dap) at P+4 of Ac-Glu-Glu-Glu-Ile-Tyr-Gly-Glu-Ile-Glu-Ala
Fold change in fluorescence intensity (GST-Lck-SH2 [1]): 2.3 fold

Src-phosphorylated library peptide with Dab-7 (Cascade Yellow on Dab) at P+1 of Ac-Glu-Glu-Glu-Ile-Tyr-Gly-Glu-Ile-Glu-Ala
Fold change in fluorescence intensity (GST-Lck-SH2 [1]): 1.5 fold

Src-phosphorylated library peptide with Dap-7 (Cascade Yellow on Dap) at P+2 of Ac-Glu-Glu-Glu-Ile-Tyr-Gly-Glu-Ile-Glu-Ala
Fold change in fluorescence intensity (GST-Lck-SH2 [1]): 1.8 fold

Src-phosphorylated library peptide with Dab-5 (dapoxyl on Dab) at P+3 of Ac-Glu-Glu-Glu-Ile-Tyr-Gly-Glu-Ile-Glu-Ala
Fold change in fluorescence intensity (GST-Lck-SH2 [1]): 3.6 fold

phosphorylated peptide 14, Ac-Glu-Glu-Glu-Ile-pTyr-Gly-Glu-Ile-Dab(dapoxyl)-Ala-amide
Fold change in fluorescence intensity (GST-Lck-SH2 [2]): 7.2 fold

Src-phosphorylated library peptide with Dap-6 (NBD on Dap) at P+1 of Ac-Glu-Glu-Glu-Ile-Tyr-Gly-Glu-Ile-Glu-Ala
Fold change in fluorescence intensity (GST-Lck-SH2 [3]): 1.6 fold

Src-phosphorylated library peptide with Dap-6 (NBD on Dap) at P+3 of Ac-Glu-Glu-Glu-Ile-Tyr-Gly-Glu-Ile-Glu-Ala
Fold change in fluorescence intensity (GST-Lck-SH2 [1]): 1.3 fold

Src-phosphorylated library peptide with Dap-7 (Cascade Yellow on Dap) at P+3 of Ac-Glu-Glu-Glu-Ile-Tyr-Gly-Glu-Ile-Glu-Ala
Fold change in fluorescence intensity (GST-Lck-SH2 [1]): 1.6 fold

Src-phosphorylated library peptide with Dab-7 (Cascade Yellow on Dab) at P+2 of Ac-Glu-Glu-Glu-Ile-Tyr-Gly-Glu-Ile-Glu-Ala
Fold change in fluorescence intensity (GST-Lck-SH2 [1]): 1.7 fold

GST-Lck-SH2 (from UniProt P06239 127-224)
Fluorescence Increase (fold change) [4]: 5.34 fold | Fluorescence Increase (fold change) [5]: 4.31 fold | Fluorescence Increase (fold change) [6]: 1.59 fold | Fluorescence Increase (fold change) [7]: 1.24 fold | Fluorescence Increase (fold change) [8]: 7.2 fold | Fluorescence Increase (fold change) [9]: 1.7 fold | Fluorescence Increase (fold change) [10]: 1.56 fold | Fluorescence Increase (fold change) [11]: 1.07 fold | Fluorescence Increase (fold change) [12]: 1.33 fold | Fluorescence Increase (fold change) [13]: 1.41 fold | Fluorescence Increase (fold change) [14]: 1.07 fold | Fluorescence Increase (fold change) [15]: 1.52 fold | Fluorescence Increase (fold change) [16]: 1.61 fold | pKd [17]: 5.68 | Fluorescence Increase (fold change) [18]: 2.32 fold | Fluorescence Increase (fold change) [19]: 6.2 fold | Fluorescence Increase (fold change) [20]: 6.85 fold | Fluorescence Increase (fold change) [21]: 7.32 fold

Src-phosphorylated library peptide with Dab-5 (dapoxyl on Dab) at P+4 of Ac-Glu-Glu-Glu-Ile-Tyr-Gly-Glu-Ile-Glu-Ala
Fold change in fluorescence intensity (GST-Lck-SH2 [3]): 4.1 fold

Src-phosphorylated library peptide with Dab-7 (Cascade Yellow on Dab) at P+3 of Ac-Glu-Glu-Glu-Ile-Tyr-Gly-Glu-Ile-Glu-Ala
Fold change in fluorescence intensity (GST-Lck-SH2 [1]): 2.1 fold

Src-phosphorylated library peptide with Dap-7 (Cascade Yellow on Dap) at P+4 of Ac-Glu-Glu-Glu-Ile-Tyr-Gly-Glu-Ile-Glu-Ala
Fold change in fluorescence intensity (GST-Lck-SH2 [1]): 1.4 fold

Src-phosphorylated library peptide with Dap-6 (NBD on Dap) at P+4 of Ac-Glu-Glu-Glu-Ile-Tyr-Gly-Glu-Ile-Glu-Ala
Fold change in fluorescence intensity (GST-Lck-SH2 [1]): 1.3 fold

Src-phosphorylated library peptide with Dab-6 (NBD on Dab) at P+4 of Ac-Glu-Glu-Glu-Ile-Tyr-Gly-Glu-Ile-Glu-Ala
Fold change in fluorescence intensity (GST-Lck-SH2 [1]): 1.7 fold

Src-phosphorylated library peptide with Dap-7 (Cascade Yellow on Dap) at P+1 of Ac-Glu-Glu-Glu-Ile-Tyr-Gly-Glu-Ile-Glu-Ala
Fold change in fluorescence intensity (GST-Lck-SH2 [1]): 1.4 fold

Src-phosphorylated library peptide with Dab-6 (NBD on Dab) at P+2 of Ac-Glu-Glu-Glu-Ile-Tyr-Gly-Glu-Ile-Glu-Ala
Fold change in fluorescence intensity (GST-Lck-SH2 [1]): 1.4 fold

phosphotyrosine version of peptide 13, Ac-Glu-Glu-Glu-Ile-pTyr-Dap(NBD)-Glu-Ile-Glu-Ala-amide
Fold change in fluorescence intensity (GST-Lck-SH2 [22]): 1.6 fold

Src-phosphorylated library peptide with Dab-6 (NBD on Dab) at P+3 of Ac-Glu-Glu-Glu-Ile-Tyr-Gly-Glu-Ile-Glu-Ala
Fold change in fluorescence intensity (GST-Lck-SH2 [1]): 1.9 fold

Src (Homo sapiens)
Km [23]: 32 ± 0.5 µM | Vmax [23]: 1.4 ± 0.1 µmol/min/mg

Src-phosphorylated library peptide with Dap-5 (dapoxyl on Dap) at P+2 of Ac-Glu-Glu-Glu-Ile-Tyr-Gly-Glu-Ile-Glu-Ala
Fold change in fluorescence intensity (GST-Lck-SH2 [1]): 2.4 fold
